Laboratory results as given in patent publication US20200009190A1.

Biological target: CD200 expressed on FBL leukemia cells transduced with CD200 (CD200+ FBL) (UniProt O54901)
Assay: cell-based or functional assay

CD200 expressed on FBL leukemia cells transduced with CD200 (CD200+ FBL), sequence (O54901 31-278 limits assumed): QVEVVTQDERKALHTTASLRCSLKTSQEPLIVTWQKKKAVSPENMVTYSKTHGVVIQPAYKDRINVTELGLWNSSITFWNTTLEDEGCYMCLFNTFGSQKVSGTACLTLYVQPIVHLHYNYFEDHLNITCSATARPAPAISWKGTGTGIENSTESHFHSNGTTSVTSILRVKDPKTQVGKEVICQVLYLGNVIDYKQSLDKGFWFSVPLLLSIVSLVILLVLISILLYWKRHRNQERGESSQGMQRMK

accumulation of transduced T cells over multiple cycles of stimulation with irradiated CD200+ FBL: 3 fold | fold enrichment, stimulation 3/stimulation 1: 3 fold | percentage of cytokine non-producing cells (flow cytometry): 27% | percentage of polyfunctional cells producing all 3 cytokines (IFNγ, IL-2, TNFα): 22%
Substance: CD200R-9aas-CD28Cys (murine construct V) (from UniProt Q9ES57 26-229; P31041 142-218)
lysis of CD200+ FBL (CFSE-based cytotoxicity assay): 40%
